A short description of the data set: label from the status in PepcDB records.
For “MTERKVSWLELFFDLIFVTAVASTTHLLLSVDNHPDKTAAYFGEYLLMVTPMFWAWVGQTMFFNRFGEKIKWPELYMLSQMFFLILMTASFDLTFSNTYYTFLIGYLGIRFITVIQYFVISKQLTGNAQKVALLLGSVFLLGVLTTATSVFFEGFARYLVMYLGIAVDIILPLFLAKTLRKVPVDFPHLAERFGLFVIITFGESIVAITTILVGHTLDLYTICYTLLGFLIICTLWASYFYSFEKIVDHHKVTHGQFLIYGHFFIIVSVMLLAVNLHLLFEGHLQRDVLLLLLFSSVAVFFISKQFVFAAHKKAEVSFSFWKDALLLLLLVGLFFVNLYINLPLFVSFVSIWICALVDLGLQFGTSRSVRM”, the protein production result is given as “failed”.
Next, “MTERLLVGVIVGSHGVRGLVRVKSFTQDEMALCDYGPLSDETGTRRFAVEVRNQAKGVVICQIPGVSDRTAADALKGTRLFLDRAALPADALEEDEYYHADLIGLPVDLVDGGRLGVVHSVHDFGAGDMLEVTLAQGRRSVLLPFTKAVVPLVDVKAGRLVADPPLGLLDDTRPPAGVEGEVEEDPGVGIDEDGDGKGGASLEHHHHHH”: “not failed”.
Consider “MTESTGSTSQEQQVRGETMPDWEKRFRAPRVSLPDWAEDAPHRALFVSNATGTYELYAWDRTTGEQRQVTDRPNGTTDGVLSPDGEWIWWFDDTDGDEFGIWRRQRFTGGGTADGPDEPAADGLEPSYPAGLAIGRDGGTAVVGRSTDEDGSTVHVVRAGQEPVEIYRHRESAGVGDLSHDGSLIAVEHTEHGDAMHSALRVLRLDGSTVAELDDTKGGSVELGLEVLGFAPVDGDTRLLIGHQRRGRWEPLVWDVASGEETDLALELPGDVGAEWYPDGSALLVAHSFEARSELFRYDLASRELVRVPTPAGTVSGATARPDGSVEYLWSSAAEPSVVRSTSGGIVLDPPGMKSPGSVPVEDVWVEGPGGRVHALVQRPAGASGPLPTVFDIHGGPTWHDSDSFAAGPAAWLDHGYAVVRVNYRGSTGYGREWTDALKHRVGLIELEDIAAVREWAVSSGLADPDRLILTGGSWGGYLTLLGLGTQPDAWTIGIAAVPVADYVTAYHDEMEALKAMDRTLLGGTPEEVPERFEASSPLTYVDAVKAPVYISAGVNDPRCPIRQVENYVERLTARDAVHEVYRYDAGHGSLVVDERIKQVRLELEFAERHLGR”, for which the protein production result is reported as “failed”.
As to “MTETRIKQLLGQMSLEEKVSILSGEDFWSVAAVERLGIGKLRVSDGPNGARGGGSLVGGVKSASFPVGIAIGSTWNVELVREIGAALADEVKSKGAHMLLAPTVNIHRSVTNGRNFECYSEDPILSAELAVSYITGLQEQGIGATIKHFVGNESEIERTTISSEVDERALREIYLIPFEWAVRKAHTWGIMSSYNRLNGTFTSEHDWLLGHVLRDEWHYDGIVMSDWFGSHSTAETVNAGLDLEMPGPTRDRGQKLVDAVNAGEVSLETLDRRVLAMLRLMERVGSLDDHRPHVEKAEDRPEHRALIRRAGAEAAVLLKNDGVLPLEGSGKIAVIGPNAKTAQIMGGGSAQLNAHYRISPWQGLVAALGEERLTYAKGCTNDRFEPLLRGVLDVDYFDNLTLSGEPVHRGTIEDAQTFWIGQVAEGKVDALHFSARVRGRFTPEASGEHNVGIYAAGFAKVYIDGKLVADAWTNWTKGRTFFEEGCDEVVGTITLEAGHAYDVTIEFCTKDFATLGLAAFACGIGHPLGDDAIAAAVEAARTAETALLFIGRNGEWDTEGSDLPAIVLPGRQNELVEAVAAVNPRTVVVLQSGGPVEMPWAGQVAAVVSAWYPGQEAGNAIADVLTGLAEPGGRLPQTFPVRWADNPAHSQDREVYPGLEGKVRYEESIFVGYRHYDKLGLTPLYPFGFGLGYTSFALSDLSVDASNFETEGTVSVTLNVTNTGDRVGSTVVQLYVSDTLSSAPRPSKELKAFAKVKLEAGASRGVTLSLDARAFAFFDAGSKSWLVEPGDFILRVGQSSADLPLTARITRTGAMHLPL”, the protein production result is on record as “failed”.
As for “MTEYNIALVGFGGVNRALAQLIAERNQAWKKQLGFSLKIVGISDLFLGSIVASQGLDAGLLSKLPATKGALAQLPGGQVEALNEQVIKDSGADIIAEATFTNPVDGEPASTFCRWALEQGKHVVTTNKGPIALHSAELKALAQRNLAAFEYEGAVMSGTPVIRMAKQSLAGSGLLGFEGILNGTSNFVLTRMEAGLGFAEAVAEAQALGYAEADPSADVEGFDVRLKVVILANELLDAQLTVSDVSCRGISGLTVKDLEQARAEGARWKLIGSAQRLADGSLQASVEPRLLPLAHPLAGIGGAINAVSFNTELLGAVTVSGPGAGRIETAFALLSDIIHIHQSRLAR”, the protein production entry is on record as “failed”.
For “MTFEDPSFWAALLTAATTAGAITILVALVRRNQAKGPDRRAREDAEIFLGLSDGLIVLDDGGRVSALNRAAQRMTGQEGEAAVGKSARRLLPGLESVLEGKDRLASSLGLWCRLPATGREEALASTLGALLSETTGPAGTRTVLVLRDISEQIRLTEVDDWLRVIDGHLLAGTSLGDLANDLCERVARAFGLPLLWIGVPRPEGLLVVGKGGSEAARLSAYPEGRGDEGTQGVAGRTLRSGRAQSDDAGEGWAAPTWAPGVPLGRAYCVGLRARGEVVAVLCLRGHGEAPSPALSRALEALGPRLGEAIVYERGQSLMRLQSAAIAAAANAIVITDGEGRVEWVNEAYHLLSGYERDQIIGTLPAVLAGPSAANPTAIEAWPTLRAGQVWRGEIHETHRDGRTYIVDKTITPIVDASGRLSHLVAVDEDVTARKKAEERIRYLSNYDTLTRLPNRVLFRDRLYQAVVQARRGHGGLAVMFIDLDQFSLVNDTLGHAAGDHLLMTIASRINAAAEEADTVARVGGDEFALIQTALTSADSAASLARRLIDVIRTPVDLGGREVVIGANVGIAIYPQDGTDPDNLMKNADMAMYRAVKSGDDSCCFFSNEMNAEAAVRLSLEEDLRRALDSGDQLFLHYQLQFCIESGRPVGAEALARWTHPTLGAIPPTRFIPVAEDSGLILALGDWVLGTALAEYARWRAAGCGRLTIAVNMSAVQFRQKGLVERVTDLLAQHGVPPEDLELELTESMLMQDADQAVAQLTALSQAGIRLSIDDFGTGYSSLGYLKLFRVDKLKVDQSFVRDVTEDGNDAVIARAIINLGHSLGLEVIAEGVETPEQMAYLRREGCDVVQGYLMAYPEPGETVARRLLALDALSAAPAAVVMSRSD”, the protein production result is “failed”.
“MTFHKIFFVISLMLVVSLVNAVDYSVVDNSGDSTGGRRFRGEIGGISYGTQTLRSATDFVWRLFQQTNPSDRKSVTKITLFMENGDGVAYNSGNEIHFNVGYLAGVYRS”: the protein production entry is “not failed”.
In the case of “MTFHWKDLTPWRRIKGVAITILYLLFCIWAGPFWLIFLPLIVDYYFFHIIKWGWYKNIRNKTLRIICSWVADIIYCVVAVTFIFAFLFQNFAIPTSSLEKTLLIGDYLFVSKLSYGPRSPMTPLGVPLTHNTMPLTGGKSFSDKPLLPYKRLKGFGHVKEGDLVVFNFPAGDTVAVKQPNPDYYMWKKLVGREELWSNPDFYGEIVYRPVDRRDHYVKRCVGMPGQELSIRNNQIYIDGKEQRNPRNMQLNYLVRMSREMSVDLIDELGISYDDVRAASSEELKASVGSNLIDSASNQPQIIYHLPLTQGMLDKLQAEPSFVKAVEEPTPIGPLYPLEYETGWTRDNYGPIVIPAKGMTVRLTPLNLALYSRCIRNFEGNKLVQKADGTVLINGRPADSYTFKMDYYFMMGDNRHNSADSRYWGFVPEDHIVGKPVFIWLSLNKDKSLFGGKIRFGRMMRTVNAD” it was “failed”; in that of “MTFLPTSLKFFSSLSRASGAVWTEATKRKAPHKPLLLLAVLDLVHRGVITTPFIAVSGDLVELNELFNLYWRRIIPLGQTSSIAFPFSRLAREPFWELVPQPGKNITDAVINNTSSVSYLRKYALGAKLDDGLFRVMASGEGREALREALLLSCFSPEASAQLREQSIINREAFDYSRLLEEQAHLPLVKEIVEADNYRPTVRDQAFRKVVTSAYDHRCALCGIRIVTPDGHTVVEAAHIVPWSRSQNDDIRNGMALCRTCHWGFDEGMLGVSDNYTVITSRSIGIDPNFPGLLQTLSGRGIIPPADPDKFPAREYLAEHRRAWRL”, “failed”; in that of “MTFNALRPVASKVIDPLADFFIRYEVSPDTVSIVSLICAFFAGLSFYYSPAYQELALLAGILVVFNSLFDALDGVIARKSNRATPRGDFLDHVIDRYSDVFIICSIFFAGYVSWQIGVAAIVGVLLTSYLGTQAQALNLGRYYGGIMGRADRLVVIILAAFANSVYPASIAGFPILGWAVILIAVTSHITAIQRIMYIWRRLD”, “failed”.
As for “MTFPLALIAKNTPANSMIMTKLPSVKVKTEGYNPSVNVNELFAYVDLSGSEPGEHDYEVKVDPIPNIKIVEISPRVVTLQLEHHHHHH”, the protein production result was “not failed”.
With “MTFRKPPPTMKPTRSLSASLFSDPHPAAYLAAFAAVMATAVARLYLPEAFTAPSSFLLFVPAVLISAALGGVGPGVFGTTFAWAAVWWVTRDIPFDLVSGLSAAIFLSVGFGMAVGGGWFHAARRRAAAVNDHLRSILDTVPDAVVVIDRAGIMTSFSPAAQRMFGWSEAEAIGKNVSLLMPEPYQSAHDGYLDRYARTGEKRIIGAGRVVVGRRKDGSTFPMELAVGETRGPTPSFTGFIRDLTERQETETRLQELQNELVHVSRLTAMGEMASTLAHELNQPLSAIANLLTGSRRLMDRGREADQAKVRDAIDRAAAQALRAGEVIHRMRDFARRGASEREVESLSKLIEEASALALIGEKERQVDVRLKLDPKADDVFADRVQIQQVLLNLIRNGIDAMQAQEPRKRALLIRTGLTEEGWSEVSVADTGPGIAPEVLERLFQPFMTTKPQGMGVGLSISRSIIEAHGGRIWAEANPGGGALFRFTLPPAESLAGEKETIDD”, the protein production entry is on record as “failed”.
Take “MTFRNCVAVDLGASSGRVMLARYERECRSLTLREIHRFNNGLHSQNGYVTWDVDSLESAIRLGLNKVCEEGIRIDSIGIDTWGVDFVLLDQQGQRVGLPVAYRDSRTNGLMAQAQQQLGKRDIYQRSGIQFLPFNTLYQLRALTEQQPELIPHIAHALLMPDYFSYRLTGKMNWEYTNATTTQLVNINSDDWDESLLAWSGANKAWFGRPTHPGNVIGHWICPQGNEIPVVAVASHDTASAVIASPLNGSRAAYLSSGTWSLMGFESQTPFTNDTALAANITNEGGAEGRYRVLKNIMGLWLLQRVLQERQINDLPALISATQALPACRFIINPNDBRFINPETMCSEIQAACRETAQPIPESDAELARCIFDSLALLYADVLHELAQLRGEDFSQLHIVGGGCQNTLLNQLCADACGIRVIAGPVEASTLGNIGIQLMTLDELNNVDDFRQVVSTTANLTTFTPNPDSEIAHYVARIHSTRQTKELCA”: the protein production result is on record as “not failed”.
For the sequence “MTFRYRGPSPKGDQPKAIAGLVEALRDGERFVTLLGATGTGKTVTMAKVIEALGRPALVLAPNKILAAQLAAEFRELFPENAVEYFISYYDYYQPEAYVPGKDLYIEKDASINPEIERLRHSTTRSLLTRRDVIVVASVSAIYGLGDPREYRARNLVVERGKPYPREVLLERLLELGYQRNDIDLSPGRFRAKGEVLEIFPAYETEPIRVELFGDEVERISQVHPVTGERLRELPGFVLFPATHYLSPEGLEEILKEIEKELWERVRYFEERGEVLYAQRLKERTLYDLEMLRVMGTCPGVENYARYFTGKAPGEPPYTLLDYFPEDFLVFLDESHVTVPQLQGMYRGDYARKKTLVDYGFRLPSALDNRPLRFEEFLERVSQVVFVSATPGPFELAHSGRVVEQIIRPTGLLDPLVRVKPTENQILDLMEGIRERAARGERTLVTVLTVRMAEELTSFLVEHGIRARYLHHELDAFERQALIRDLRLGHYDCLVGINLLREGLDIPEVSLVAILDADKEGFLRSERSLIQTIGRAARNARGEVWLYADRVSEAMQRAIEETNRRRALQEAYNLEHGITPETVRKEVRAVIRPEGYEEAPLEADLSGEDLRERIAELELAMWQAAEALDFERAARLRDEIRALEARLQGVRAPEPVPGGRKRKRR”, the protein production entry was “not failed”.

Values taken from a protein production outcome set (Wang et al. 2014).
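Further: failed if final PepcDB status was selected cloned or expressed and not failed if soluble or beyond.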
